# Measurements from patent publication US20230134571A1 (INTERNATIONAL AIDS VACCINE INITIATIVE, published 2023).
# Legend:
# Test in all cases: cell-based or functional assay
# HIV Env, isolate 2969249 = HIV Env, isolate 2969249 (HIV)
# [1] = target: HIV Env, isolate 20965238 (HIV)
# [2] = target: HIV Env, isolate 2768732_C5_16 (HIV)
# [3] = target: HIV Env, isolate 18814602_H8_F3 (HIV)
# [4] = target: HIV Env, isolate 20198102_E9_G1 (HIV)
# [5] = target: HIV Env, isolate 20883229_C9_H6 (HIV)
# [6] = target: HIV Env, isolate 234-F1-16-57 (HIV)
# [7] = target: HIV Env, isolate 569-F1_37_10 (HIV)
# [8] = target: HIV Env, isolate 556_F2_3_25 (HIV)
# [9] = target: HIV Env, isolate CAP69.1.12_TA7.1 (HIV)
# [10] = target: HIV Env, isolate CAP174.1.06_F3_1B (HIV)
# [11] = target: HIV Env, isolate So431_C1_1 (HIV)
# [12] = target: HIV Env, isolate CT072_56_7 (HIV)
# [13] = target: HIV Env, isolate CT966_E1-7 (HIV)
# [14] = target: HIV Env, isolate Ko426_T78_10 (HIV)
# [15] = target: HIV Env, isolate Ko870_C2_10 (HIV)
# [16] = target: HIV Env, isolate CAP330.2.00_F2.41 (HIV)
# [17] = target: HIV Env, isolate B005018-8_F6.3 (HIV)
# [18] = target: HIV Env, isolate SO607_B6.9 (HIV)
# [19] = target: HIV Env, isolate Me178_G6.16 (HIV)
# [20] = target: HIV Env, isolate CAP291.2.00_H2.15 (HIV)
# [21] = target: HIV Env, isolate CH0505.w4.3 (HIV)
# [22] = target: HIV Env, isolate 6022.v7.c24 (HIV)
# [23] = target: HIV Env, isolate 6146.v7.c23 (HIV)
# MuLV (Neg. Control) = target: MuLV (Neg. Control)
# [24] = target: HIV Env, isolate CAP45.2.00.G3 (HIV)
# HIV Env, isolate Du422.1 = HIV Env, isolate Du422.1 (HIV)
# [25] = target: HIV Env, isolate ZM135M.PL10a (HIV)
# [26] = target: HIV Env, isolate ZM214M.PL15 (HIV)
# [27] = target: HIV Env, isolate 0984.v2.c2 (HIV)
# [28] = target: HIV Env, isolate 6631.v3.c10 (HIV)
# [29] = target: HIV Env, isolate 933.v4.c4 (HIV)
# [30] = target: HIV Env, isolate Ce0665_F2 (HIV)
# [31] = target: HIV Env, isolate CeCAP210_TA5 (HIV)
# [32] = target: HIV Env, isolate CeCAP188_1_D1_14(Rev-) (HIV)
# [33] = target: HIV Env, isolate 7060101641A7(Rev-) (HIV)
binder,measurement,setting,value
"ePGDM9 (antibody, V domains shown) VH: QAQLVQSGPEVRKPGTSVKVSCKNPGNTLTTYDLHWVRQVPGQGLQWMGWISHEGDKKVIVERFKAKVTIDWDRSTNTAYLQLSGLTSEDTAVYYCAKGSKHRLRDYALYDEDGALNWAVDVDYLANLEFWGQGTAVTVSS VL: DIVLTQSPLSLSVTPGESASISCKSSQSLIHGDRNNYLAWYVQKPGRSPQLLIDLASERASGVPDRFSGSGSRKDFTLKISRVETEDVGTYYCMQGRESPWTFGQGTKVDIK",IC50,"HIV Env, isolate 2969249",> 50 µg/mL
same,IC80,"HIV Env, isolate 2969249",> 50 µg/mL
same,IC50,[1],> 50 µg/mL
same,IC80,[1],> 50 µg/mL
same,IC50,[2],0.016 µg/mL
same,IC80,[2],0.114 µg/mL
same,IC50,[3],< 0.0006 µg/mL
same,IC80,[3],0.002 µg/mL
same,IC50,[4],0.007 µg/mL
same,IC80,[4],0.021 µg/mL
same,IC50,[5],> 50 µg/mL
same,IC80,[5],> 50 µg/mL
same,IC50,[6],< 0.0006 µg/mL
same,IC80,[6],0.002 µg/mL
same,IC50,[7],> 50 µg/mL
same,IC80,[7],> 50 µg/mL
same,IC50,[8],> 50 µg/mL
same,IC80,[8],> 50 µg/mL
same,IC50,[9],0.01 µg/mL
same,IC80,[9],0.039 µg/mL
same,IC50,[10],12.6 µg/mL
same,IC80,[10],> 50 µg/mL
same,IC50,[11],> 50 µg/mL
same,IC80,[11],> 50 µg/mL
same,IC50,[12],0.002 µg/mL
same,IC80,[12],1.23 µg/mL
same,IC50,[13],< 0.0006 µg/mL
same,IC80,[13],0.003 µg/mL
same,IC50,[14],> 50 µg/mL
same,IC80,[14],> 50 µg/mL
same,IC50,[15],0.001 µg/mL
same,IC80,[15],0.021 µg/mL
same,IC50,[16],< 0.0006 µg/mL
same,IC80,[16],0.004 µg/mL
same,IC50,[17],< 0.0006 µg/mL
same,IC80,[17],0.003 µg/mL
same,IC50,[18],29.5 µg/mL
same,IC80,[18],> 50 µg/mL
same,IC50,[19],0.006 µg/mL
same,IC80,[19],0.031 µg/mL
same,IC50,[20],0.342 µg/mL
same,IC80,[20],1.1 µg/mL
same,IC50,[21],0.001 µg/mL
same,IC80,[21],0.011 µg/mL
same,IC50,[22],> 50 µg/mL
same,IC80,[22],> 50 µg/mL
same,IC50,[23],0.019 µg/mL
same,IC80,[23],0.249 µg/mL
same,IC50,MuLV (Neg. Control),> 50 µg/mL
same,IC80,MuLV (Neg. Control),> 50 µg/mL
same,IC50,[24],< 0.0006 µg/mL
same,IC80,[24],< 0.0006 µg/mL
same,IC50,"HIV Env, isolate Du422.1",> 50 µg/mL
same,IC80,"HIV Env, isolate Du422.1",> 50 µg/mL
same,IC50,[25],> 50 µg/mL
same,IC80,[25],> 50 µg/mL
same,IC50,[26],> 50 µg/mL
same,IC80,[26],> 50 µg/mL
same,IC50,[27],2.81 µg/mL
same,IC80,[27],> 50 µg/mL
same,IC50,[28],> 50 µg/mL
same,IC80,[28],> 50 µg/mL
same,IC50,[29],> 50 µg/mL
same,IC80,[29],> 50 µg/mL
same,IC50,[30],22.4 µg/mL
same,IC80,[30],> 50 µg/mL
same,IC50,[31],0.009 µg/mL
same,IC80,[31],0.073 µg/mL
same,IC50,[32],> 50 µg/mL
same,IC80,[32],> 50 µg/mL
same,IC50,[33],0.002 µg/mL
same,IC80,[33],0.013 µg/mL
